Data reported in the nanobody polyreactivity screen of Harvey et al. (2022).

Test: yeast display, Sf9 membrane polyspecificity reagent, FACS + sequencing; frameworks hold sequencing errors
How it was run: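 A nanobody's polyreactivity label depends on the gate it was sorted from. Yeast display cells were stained with 10% biotinylated, detergent-solubilized Sf9 membrane reagent for 1 hour at 4 °C, enriched on streptavidin microbeads and sorted by FACS. The low and high (top ~1%) gates were set on anti-HA fluorescence for expression and streptavidin fluorescence for reagent binding.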

Sequence	polyreactivity (PSR sort gate)
QVQLVESGGGLVQAGGSLRLSCAASGSTLVKYAMGWYRQAPGKERELVAAISWSGGRTYYADSVKGRFTISRDNAKNNVYLQMNSLKPEDTAVYYCAARRKAVRYDYWGQGTQVTVSS	high polyreactivity
QVQLVESGGGLVQAGGSLRLSCAASGSTLVQYVMGWYRQAPGKERELVAAISGSGGSTYYADSVKGRFTISRDNAKNTVYLQMNSLKPEDTAVYYCAASRRSGYGYWGQGTQVTVSS	high polyreactivity
QVQLVESGGGLVQAGGSLRLSCAASGSTLVRKAMGWYRQAPGKERELVAAISRSGGRTYYADSVKGRFTISRDNAKNTVYLQMNSLKPEDTAVYYCARLDGFSASDHDYWGQGTQVTVSS	high polyreactivity
QVQLVESGGGLVQAGGSLRLSCAASGSTLVTYAMAWYRQAPGKERELVAAISGGTGTDYADSVKGRFTISRDNAKNTVYLQMNSLKPEDTAVYYCAAKSSSNKVDYYYWGQGSQVTVSS	low polyreactivity
QVQLVESGGGLVQAGGSLRLSCAASGSTLVYNDMGWYRQAPGKEREFVAAIRSNDGSTYYADSVKGRFTISRDNAKNTVYLQMNSLKAEDTAVYYCNKDVWDGYDWPEFDYWGQGTQVTVSS	low polyreactivity
QVQLVESGGGLVQAGGSLRLSCAASGSTLVYNDMGWYRQAPGKEREFVAAIRSNDGSTYYADSVKGRFTISRDNAKNTVYLQMNSLKPEDTAVYYCNARNQVYKIYYSDYRRYDYWGQGTQVTVSS	low polyreactivity
QVQLVESGGGLVQAGGSLRLSCAASGSTLVYYDMGWYRQAPGKERELVATITGTDSAYYAVSVKGRFTISRDNAMNTVYLQMNRLKPEDTADCAADRAASRADYEYWGQGTQVTVSS	low polyreactivity
QVQLVESGGGLVQAGGSLRLSCAASGSTLWIYAMGWYRQAPGKERELVAAISWSTGRTYYADSVKGRFTISRDNAKNTVYLQMNSLKPVDTAVYYCNAGPQHNTLKLFYYWGQGTQVTVSS	low polyreactivity
QVQLVESGGGLVQAGGSLRLSCAASGSTLWLYAMGWYRQAHGKERELVAVISNSGSTYYAESVKGRFTISRDNAKNTVYLQMNSLKPEDTAVYSCNKDGGGDSYWYDYWGQGTQVTVSS	low polyreactivity
QVQLVESGGGLVQAGGSLRLSCAASGSTLWYNAMGWYRQAPGKERELVATITAGGGSTYYADSVKGRFTISRDNAKNTVYLQMNSLKPEDTAVYYCATPVASVTGYDYWGQGTQVTVSS	low polyreactivity
QVQLVESGGGLVQAGGSLRLSCAASGSTLWYNAMGWYRQGPGKERELVASITSDGGSSTYADSVKGRFTISRDNAKYTVYLQMNSLKPEDTAVYYCAADWPIVQYDYWGQGTQVTVSS	low polyreactivity
QVQLVESGGGLVQAGGSLRLSCAASGSTLYCNAMGWYRQAPGKERELVAAISRSGGSTYYADSVKGRFTISRDNAKKTVYLQMNSLKPEDTAVYYCAARRYVPHTEYYYWGQGTQGTVSS	low polyreactivity
QVQLVESGGGLVQAGGSLRLSCAASGSTLYFYAMGGYRQAPGKERELVADITWSGGSTYYADSVKGRFTISRDNAKNTVYLQMNSLKPEDTAVYYCNADDWSTYWYGYPGYVYWGQGTQVTVSS	high polyreactivity
QVQLVESGGGLVQAGGSLRLSCAASGSTLYGNVMGWYRQAPGKERELVATINRGGSTNYADSVKGRFTISRDNAKNNVYLQMNSLKPEDTAVYYCAADYYGYWYDYEGDHWGQGTQVTVSS	low polyreactivity
QVQLVESGGGLVQAGGSLRLSCAASGSTLYHNAMGWYRQAPGKERELVAIINYSGDNTYYADSVKGRFTISRDNAKNTVFLQMNSLKPEDTAVYYCAADLYERGRQAWQYDYWGQGTQVTVSS	low polyreactivity
QVQLVESGGGLVQAGGSLRLSCAASGSTLYHYDMGWYRQAPGKERELVAAITTSGDSTYYADSVKGRFTISRDNAKNTVYLQMNSLKPEDTAVYYCNADVFKTVFYIDRYYYWGQGTQVTVSS	low polyreactivity
QVQLVESGGGLVQAGGSLRLSCAASGSTLYIYAMGWYRQAPGKERELVAAITSSTGSTYADSVKGRFTISRDNAKNTVYLQMNSLKPEDTAVFVCNAGGPLQPYDYWGQGTQVTVSS	low polyreactivity
QVQLVESGGGLVQAGGSLRLSCAASGSTLYPYAMGWYRQAPGKERELVAVITKSGGRTYYADSVKGRFTISRDNAKNTVYLQMNSLKPEDTAVYYCAAKSTYGRLGGDSWGQGTQVTVSS	high polyreactivity
QVQLVESGGGLVQAGGSLRLSCAASGSTLYRNAMGWYRQAPGKERELVAAINYRGTRTYYADSVKGRFTISRDNAKNTVYLQMNSLKPEDTAVYYCAKDYSQFVTYPYDYWGQGTQVTVSS	low polyreactivity
QVQLVESGGGLVQAGGSLRLSCAASGSTLYWYAMGWYRQAPGKERELVAVITSSGVSTYYADSVKGRFTISRDNAKNTVYLQMNSLKPEDTAVYYCNAKWYGWQRGTVKYDYWGQGTQVTVSS	low polyreactivity
QVQLVESGGGLVQAGGSLRLSCAASGSTLYYNAMGWYRQAPGKERELVAAITSGGSTSYADSVKGRFTISRDNAKNTVSFQMYSLKPEDTAVYYCAAVFYRRFDNWGQGTQVTVSS	low polyreactivity
QVQLVESGGGLVQAGGSLRLSCAASGSTNGRYAMGWYRQAPGKERELVAAISYSGGSTYYADTVKGRFTISRDNAKNTVYLQMNSLKPEDTAVYYCAAQYVRKYRVSRGYNYWGQGTQVTVSS	high polyreactivity

Sequence	polyreactivity (PSR sort gate)
QVQLVESGGGLVQAGGSLRLSCAASGSTRIYAMGWYRQAPGKERELVAAISWTGGRTYYADSVKGRFTISRDNAKNTVYLQMNSLKPEDTAVYYCAAKGSGRDYWGQGTQVTVSS	high polyreactivity
QVQLVESGGGLVQAGGSLRLSCAASGSTRRYAMGWYRQAPGKERELVAAISSRGGSTYYADSVKGRFTISRDNAKNTVYLQMNSLKPEDTAVYYCAARTTRGPTFGYWGQGTQVTVSS	high polyreactivity
QVQLVESGGGLVQAGGSLRLSCAASGSTSALYAMGWYRQAPGKERELVATITRSGTTKYADSVKGRFTISRDNAKNTVYLQMNSLKPEDTAVYYCNTDTYFPLYDYWGQGTQVTVSS	low polyreactivity
QVQLVESGGGLVQAGGSLRLSCAASGSTSARYAMGWYRQAPGKERELVATITRSGTTKYADSVKGRFTISRDNAKNTVYLQMNSLKPEDTAVYYCNTDTYFPLYDYWGQGTQVTVSS	low polyreactivity
QVQLVESGGGLVQAGGSLRLSCAASGSTSESNAMGWYRQAPGKERELVAAIRSSGGGTYYADSVKGRFTISRDNAKNTVYLQMNSLKPEDTAVYYCAKDVPEDYEFYYWGQGTQVTVSS	low polyreactivity
QVQLVESGGGLVQAGGSLRLSCAASGSTSGKYGMGWYRQAPGKVRELVAGITKGGGGTYYADSVKGRFTISRDNAKNTVYLQMHSLKPEDTAVYYCAKYYGSGYYIYDYWGQGTQVTVSS	low polyreactivity
QVQLVESGGGLVQAGGSLRLSCAASGSTSLSYVKGWYRQAPGKERELVATITSSGGSTYYADSVKGRFTISRDNAKNTDYLQMNSLKQEDPAVYYCNARSYIYPFSPTSYYRYYWGQGTQVTGSS	high polyreactivity
QVQLVESGGGLVQAGGSLRLSCAASGSTSNLYAMGWYIQAPGKERELVAAITSIDGGTYYADSVKGRFTISRDNAKNTVYLQMNSLKAEDTAVYYCNAEDRFFYWGGYDYWGQGTQVTVSS	low polyreactivity
QVQLVESGGGLVQAGGSLRLSCAASGSTSPDNAMGWYRPAQGKERELVAAISSGGYTYADSVKGRFTISRDNAKNTVYLQMNSLKPEDTSVYYCAKDDLYSPAAGGGYWGEGTQVTVSS	low polyreactivity
QVQLVESGGGLVQAGGSLRLSCAASGSTSPGYAMGWYRQAPGKERELVAAITFRGTRTYYADSVKGRFTISRDNAKNTVYLQMNSLKPEDTAVFYCNVVGYGPNRGRVDYWGQGTQVTVSS	high polyreactivity
QVQLVESGGGLVQAGGSLRLSCAASGSTSPLYAMGWYRQAPGKERELVAAISWSTGSTYYADSVKGRFTISRDNAKNTVYLQMNSLKPEDTAVYYCAADYWFRYGTYEYWGQGTQVTVSS	high polyreactivity
QVQLVESGGGLVQAGGSLRLSCAASGSTSPNAMGWYRQAPGKERELVAAIWSGGTYYADSVKGRFTISRDNAKNTVYLQLNSLKPEDTAVYYCAVTGVYRGFRYGYLGQGTQVTVSS	low polyreactivity
QVQLVESGGGLVQAGGSLRLSCAASGSTSQRNAMGWYRQAPGKERELVAAISRSGGSTSYADSVKGRFTISRDNAKNTVYLQMNSLKPEDTAVYYCNTDRRIYRVWYNYWGQGTQVTVSS	high polyreactivity
QVQLVESGGGLVQAGGSLRLSCAASGSTSRGYAMGWYRPAPGKERELVASITLSGGNTYYADSVKGRFTISRDSAKNTVYFQMYSLKPVDTAVYYCAADDRGSSYGHFTVEYGNWGQGTQVTVSS	low polyreactivity
QVQLVESGGGLVQAGGSLRLSCAASGSTSRGYAMGWYRQAPGEERELVASITLSGGNTYYADSVKGRFTISRDNAKNTVYLQMNSLKPEDTAVYYCAADDRGSSYGHFTVEYGYWGQGTQVTVSS	low polyreactivity
QVQLVESGGGLVQAGGSLRLSCAASGSTSRYAMGWYRQAPGKERELVAAITRSGGTTYYADSVKGRFTISRDNAKNTVYLQMNSLKPEDTAVYYCATSDRQVKYDYWGQGTQVTVSS	low polyreactivity
QVQLVESGGGLVQAGGSLRLSCAASGSTSSVNAMGWYRQAPGKEREFVATISFGGGRRYYADSVKGRFTISRDNAKNTVYLQMNSLKPEDTAVYYCAAVGSRWFSQTWRDYWGQGTQVTVSS	high polyreactivity
QVQLVESGGGLVQAGGSLRLSCAASGSTSTYYAMGWYRQAPGKERELVATISSTGNTKYADSVKGRFTISRDNAKNTVYLQMNSLKPEDTAVYYCNKRRSARFSSWGRVSYDYWGQGTQVTVSS	high polyreactivity
QVQLVESGGGLVQAGGSLRLSCAASGSTSVGNAMGWSRQAPGKERELVAAISRIGGTTYYADSVKGRFTISRDNAKNTVYLQMNSLKPEDPAVYYCNVLKRYWSGRVDYWGQGTQVTVSS	high polyreactivity
QVQLVESGGGLVQAGGSLRLSCAASGSTSVQYAMGWYRQAPGKERELVAAIDRSGGSTSYADSVKGRFTISRDNAKHTVYLQMNSLKPEDTAVYYCNADVHNRGWPYDYWGQGTQVTVSS	low polyreactivity
QVQLVESGGGLVQAGGSLRLSCAASGSTSVTNAMGWYRQAPGKEREFVATINYSGTSTYYADSVKGRFTISRDNAKNTVYLQMNSLKPEDTAVYYCNAHDFGFYRFSLPGYDYWGQGTQVTVSS	low polyreactivity
